Earlier results on 1 substance are cited in publication PMC2880639.

The series addresses His62 (UniProt position 62, VESEAHPGSVQ). The experiment in a line: kinetics. Conditions: dissociated species undergoing association.

The pKa is the pH at which an ionisable group is half protonated. “R67 dihydrofolate reductase (type II DHFR) (Escherichia coli (plasmid R67))”: the pKa is listed as 6.6.
